# Test results as given in article PMC3796444 (PLoS ONE, 2013).
# Target: the molecule itself
# Test: SEC; purified recombinant AGT variants; single peak, elution volume of a ≈90 kDa dimer; data not shown
row,Protein,stoichiometry N
1,"alanine:glyoxylate aminotransferase p.F152I on the minor allele, recombinant His-tagged (enzyme, human, UniProt P21549 1-392, looked up, alanine:glyoxylate aminotransferase (AGT), human, PH1 mutation p.F152I in the minor allele; source: E. coli BL21 (pCOLDII), purified (IMAC, SEC)) MASHKLLVTPLKALLKPLSIPNQLLLGPGPSNLPPRIMAAGGLQMIGSMSKDMYQIMDEIKEGIQYVFQTRNPLTLVISGSGHCALEAALVNVLEPGDSFLVGANGIWGQRAVDIGERIGARVHPMTKDPGGHYTLQEVEEGLAQHKPVLLILTHGESSTGVLQPLDGFGELCHRYKCLLLVDSVASLGGTPLYMDRQGIDILYSGSQKALNAPPGTSLISFSDKAKKKMYSRKTKPFSFYLDIKWLANFWGCDDQPRMYHHTIPVISLYSLRESLALIAEQGLENSWRQHREAAAYLHGRLQALGLQLFVKDPALRLPTVTTVAVPAGYDWRDIVSYVMDHFDIEIMGGLGPSTGKVLRIGLLGCNATRENVDRVTEALRAALQHCPKKKL",2
2,"alanine:glyoxylate aminotransferase p.R197Q on the minor allele, recombinant His-tagged (enzyme, human, UniProt P21549 1-392, looked up, alanine:glyoxylate aminotransferase (AGT), human, rare variant p.R197Q in the minor allele; source: E. coli BL21 (pCOLDII), purified (IMAC, SEC)) MASHKLLVTPLKALLKPLSIPNQLLLGPGPSNLPPRIMAAGGLQMIGSMSKDMYQIMDEIKEGIQYVFQTRNPLTLVISGSGHCALEAALVNVLEPGDSFLVGANGIWGQRAVDIGERIGARVHPMTKDPGGHYTLQEVEEGLAQHKPVLLFLTHGESSTGVLQPLDGFGELCHRYKCLLLVDSVASLGGTPLYMDQQGIDILYSGSQKALNAPPGTSLISFSDKAKKKMYSRKTKPFSFYLDIKWLANFWGCDDQPRMYHHTIPVISLYSLRESLALIAEQGLENSWRQHREAAAYLHGRLQALGLQLFVKDPALRLPTVTTVAVPAGYDWRDIVSYVMDHFDIEIMGGLGPSTGKVLRIGLLGCNATRENVDRVTEALRAALQHCPKKKL",2
3,"alanine:glyoxylate aminotransferase p.P11L, recombinant His-tagged (enzyme, human, UniProt P21549 1-392, looked up, alanine:glyoxylate aminotransferase (AGT), human, polymorphic variant p.P11L; source: E. coli BL21 (pCOLDII), purified (IMAC, SEC)) MASHKLLVTPLKALLKPLSIPNQLLLGPGPSNLPPRIMAAGGLQMIGSMSKDMYQIMDEIKEGIQYVFQTRNPLTLVISGSGHCALEAALVNVLEPGDSFLVGANGIWGQRAVDIGERIGARVHPMTKDPGGHYTLQEVEEGLAQHKPVLLFLTHGESSTGVLQPLDGFGELCHRYKCLLLVDSVASLGGTPLYMDRQGIDILYSGSQKALNAPPGTSLISFSDKAKKKMYSRKTKPFSFYLDIKWLANFWGCDDQPRMYHHTIPVISLYSLRESLALIAEQGLENSWRQHREAAAYLHGRLQALGLQLFVKDPALRLPTVTTVAVPAGYDWRDIVSYVIDHFDIEIMGGLGPSTGKVLRIGLLGCNATRENVDRVTEALRAALQHCPKKKL",2
4,"alanine:glyoxylate aminotransferase p.A368T on the minor allele, recombinant His-tagged (enzyme, human, UniProt P21549 1-392, looked up, alanine:glyoxylate aminotransferase (AGT), human, PH1 mutation p.A368T in the minor allele; source: E. coli BL21 (pCOLDII), purified (IMAC, SEC)) MASHKLLVTPLKALLKPLSIPNQLLLGPGPSNLPPRIMAAGGLQMIGSMSKDMYQIMDEIKEGIQYVFQTRNPLTLVISGSGHCALEAALVNVLEPGDSFLVGANGIWGQRAVDIGERIGARVHPMTKDPGGHYTLQEVEEGLAQHKPVLLFLTHGESSTGVLQPLDGFGELCHRYKCLLLVDSVASLGGTPLYMDRQGIDILYSGSQKALNAPPGTSLISFSDKAKKKMYSRKTKPFSFYLDIKWLANFWGCDDQPRMYHHTIPVISLYSLRESLALIAEQGLENSWRQHREAAAYLHGRLQALGLQLFVKDPALRLPTVTTVAVPAGYDWRDIVSYVMDHFDIEIMGGLGPSTGKVLRIGLLGCNTTRENVDRVTEALRAALQHCPKKKL",2
5,"alanine:glyoxylate aminotransferase p.I244T on the minor allele, recombinant His-tagged (enzyme, human, UniProt P21549 1-392, looked up, alanine:glyoxylate aminotransferase (AGT), human, PH1 mutation p.I244T in the minor allele (p.P11L, p.I244T and p.I340M in cis); source: E. coli BL21 (pCOLDII), purified (IMAC, SEC)) MASHKLLVTPLKALLKPLSIPNQLLLGPGPSNLPPRIMAAGGLQMIGSMSKDMYQIMDEIKEGIQYVFQTRNPLTLVISGSGHCALEAALVNVLEPGDSFLVGANGIWGQRAVDIGERIGARVHPMTKDPGGHYTLQEVEEGLAQHKPVLLFLTHGESSTGVLQPLDGFGELCHRYKCLLLVDSVASLGGTPLYMDRQGIDILYSGSQKALNAPPGTSLISFSDKAKKKMYSRKTKPFSFYLDTKWLANFWGCDDQPRMYHHTIPVISLYSLRESLALIAEQGLENSWRQHREAAAYLHGRLQALGLQLFVKDPALRLPTVTTVAVPAGYDWRDIVSYVMDHFDIEIMGGLGPSTGKVLRIGLLGCNATRENVDRVTEALRAALQHCPKKKL",2
6,"alanine:glyoxylate aminotransferase p.G170R on the minor allele, recombinant His-tagged (enzyme, human, UniProt P21549 1-392, looked up, alanine:glyoxylate aminotransferase (AGT), human, PH1 mutation p.G170R in the minor allele (p.P11L, p.G170R and p.I340M in cis); source: E. coli BL21 (pCOLDII), purified (IMAC, SEC)) MASHKLLVTPLKALLKPLSIPNQLLLGPGPSNLPPRIMAAGGLQMIGSMSKDMYQIMDEIKEGIQYVFQTRNPLTLVISGSGHCALEAALVNVLEPGDSFLVGANGIWGQRAVDIGERIGARVHPMTKDPGGHYTLQEVEEGLAQHKPVLLFLTHGESSTGVLQPLDGFRELCHRYKCLLLVDSVASLGGTPLYMDRQGIDILYSGSQKALNAPPGTSLISFSDKAKKKMYSRKTKPFSFYLDIKWLANFWGCDDQPRMYHHTIPVISLYSLRESLALIAEQGLENSWRQHREAAAYLHGRLQALGLQLFVKDPALRLPTVTTVAVPAGYDWRDIVSYVMDHFDIEIMGGLGPSTGKVLRIGLLGCNATRENVDRVTEALRAALQHCPKKKL",2
7,"alanine:glyoxylate aminotransferase p.P319L on the minor allele, recombinant His-tagged (enzyme, human, UniProt P21549 1-392, looked up, alanine:glyoxylate aminotransferase (AGT), human, PH1 mutation p.P319L in the minor allele; source: E. coli BL21 (pCOLDII), purified (IMAC, SEC)) MASHKLLVTPLKALLKPLSIPNQLLLGPGPSNLPPRIMAAGGLQMIGSMSKDMYQIMDEIKEGIQYVFQTRNPLTLVISGSGHCALEAALVNVLEPGDSFLVGANGIWGQRAVDIGERIGARVHPMTKDPGGHYTLQEVEEGLAQHKPVLLFLTHGESSTGVLQPLDGFGELCHRYKCLLLVDSVASLGGTPLYMDRQGIDILYSGSQKALNAPPGTSLISFSDKAKKKMYSRKTKPFSFYLDIKWLANFWGCDDQPRMYHHTIPVISLYSLRESLALIAEQGLENSWRQHREAAAYLHGRLQALGLQLFVKDPALRLLTVTTVAVPAGYDWRDIVSYVMDHFDIEIMGGLGPSTGKVLRIGLLGCNATRENVDRVTEALRAALQHCPKKKL",2
8,"alanine:glyoxylate aminotransferase p.I340M, recombinant His-tagged (enzyme, human, alanine:glyoxylate aminotransferase (AGT), human, polymorphic variant p.I340M; Crystallised here (PDB 2YOB); source: E. coli BL21 (pCOLDII), purified (IMAC, SEC)) MASHKLLVTPPKALLKPLSIPNQLLLGPGPSNLPPRIMAAGGLQMIGSMSKDMYQIMDEIKEGIQYVFQTRNPLTLVISGSGHCALEAALVNVLEPGDSFLVGANGIWGQRAVDIGERIGARVHPMTKDPGGHYTLQEVEEGLAQHKPVLLFLTHGESSTGVLQPLDGFGELCHRYKCLLLVDSVASLGGTPLYMDRQGIDILYSGSQKALNAPPGTSLISFSDKAKKKMYSRKTKPFSFYLDIKWLANFWGCDDQPRMYHHTIPVISLYSLRESLALIAEQGLENSWRQHREAAAYLHGRLQALGLQLFVKDPALRLPTVTTVAVPAGYDWRDIVSYVMDHFDIEIMGGLGPSTGKVLRIGLLGCNATRENVDRVTEALRAAL",2
